Patent publication US20220265819A1 (GEN2 NEUROSCIENCE, published 2022)

Columns and labels:
[1] = biological target: T1, full length recombinant human 2N4R tau (amino acids 1-441) (human, UniProt P10636 1-758); experiment: SPR Biacore SCK, IgG on Protein A, tau analyte
T1 construct: Bought (rPeptide); recombinant, non-phosphorylated; also called recombinant tau
Description: 23.5 Assessment of antibody binding to tau (Biacore SCK analysis): Binding of anti-tau hIgG1 to full length recombinant 2N4R tau (Rpeptide; SEQ ID NO: 2) was assessed using the Biacore T200 (GE Healthcare, Chicago, Ill., USA) running Biacore T200 Evaluation Software V2.0.1. hIgG1 were immobilised on a Protein A capture sensor chip in running buffer (HBS-EP+ buffer containing 1 mg/mL BSA) at 25° C. captured to ˜50 RU at 10 μL/min. For single-cycle kinetics experiments, recombinant 2N4R tau was flowed at concentrations ranging from 5 nM to 40 nM (2-fold dilutions) with an association time of 150 s and a dissociation time of 200 s. Curves were compared to a reference cell that was mock immobilized (no antibody present).
Data were analysed using Langmuir (1:1) binding analysis, describing a 1:1 interaction at the surface: […]

[2] = biological target: T2, Bovine serum albumin (bovine, UniProt P02769 25-607); experiment: ELISA on 1% BSA, HEK supernatant, anti-human IgG-HRP, n=1
T2 construct: Negative control antigen in ELISA; also called BSA
Description: Antigen was removed from wells and the plates were then blocked for 1 hour at RT with 5% dried milk in 1×TBS. Blocking solution was removed, HEK293 cell supernatant (1:100 in 1% BSA/1×TBS) was added to relevant wells, and plates were incubated for 1 hour at RT with gentle shaking. Plates were then washed four times with TBS/0.1% Tween (TBST). Goat-anti-human IgG-HRP antibody (ThermoFisher Scientific, Waltham, Mass. USA), diluted 1:2000 in 5% milk/TBS, was added to each well and plates were incubated for 1 hour at RT with gentle shaking before being washed four times with TBST. 3,3′,5,5′-tetramethylbenzidine (TMB) ELISA solution was added to each well and plates were incubated for 15 mins at RT. An equal volume of 1 M sulfuric acid was added to each well and OD was measured at 450 nm.

T2 sequence (P02769 25-607 limits assumed): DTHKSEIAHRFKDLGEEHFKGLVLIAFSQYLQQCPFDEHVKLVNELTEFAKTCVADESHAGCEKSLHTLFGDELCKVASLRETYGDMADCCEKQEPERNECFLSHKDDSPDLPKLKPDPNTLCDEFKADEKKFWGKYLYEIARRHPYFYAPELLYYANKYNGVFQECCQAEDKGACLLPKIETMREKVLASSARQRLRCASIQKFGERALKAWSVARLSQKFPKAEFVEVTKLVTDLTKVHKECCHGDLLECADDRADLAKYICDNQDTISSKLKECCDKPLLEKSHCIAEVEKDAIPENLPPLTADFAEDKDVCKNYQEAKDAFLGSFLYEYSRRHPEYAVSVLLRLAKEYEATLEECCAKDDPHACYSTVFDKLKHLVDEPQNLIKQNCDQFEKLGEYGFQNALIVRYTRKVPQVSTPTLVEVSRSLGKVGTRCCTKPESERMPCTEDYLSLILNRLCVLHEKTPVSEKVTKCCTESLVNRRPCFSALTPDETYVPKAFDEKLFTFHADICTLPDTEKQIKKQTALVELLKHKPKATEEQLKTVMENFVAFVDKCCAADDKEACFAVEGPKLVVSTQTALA
T1 sequence (P10636 other isoform, or with tags, fused parts or gaps limits assumed): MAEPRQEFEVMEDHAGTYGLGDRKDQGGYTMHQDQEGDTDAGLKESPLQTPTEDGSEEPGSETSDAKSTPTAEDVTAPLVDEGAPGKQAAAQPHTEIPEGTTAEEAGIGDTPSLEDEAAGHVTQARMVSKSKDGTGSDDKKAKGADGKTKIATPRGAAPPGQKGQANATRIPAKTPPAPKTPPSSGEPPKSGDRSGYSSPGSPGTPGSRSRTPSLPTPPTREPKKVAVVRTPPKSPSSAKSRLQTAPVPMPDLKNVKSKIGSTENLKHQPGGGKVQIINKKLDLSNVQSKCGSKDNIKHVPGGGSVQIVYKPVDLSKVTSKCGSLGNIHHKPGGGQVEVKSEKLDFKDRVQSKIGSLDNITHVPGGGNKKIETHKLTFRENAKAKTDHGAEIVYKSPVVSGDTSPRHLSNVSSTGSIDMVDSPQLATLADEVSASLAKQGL

Binder | Kd [1] [nM] | Relative KD [1] [fold vs VH0VK0] | koff [1] [s⁻¹] | kon [1] [M⁻¹ s⁻¹] | binding result [2]
Clone 26 (VH4Vκ1), humanised variant of clone #28, human IgG1 (antibody, V domains shown, also called VH4VK1) VH: QVQLQESGPGLVKPSETLSLTCTVSGFSLNNYDMSWVRQAPGKGLEWIGTVSTTYRRYYASWAKGRFTISKDTSSTTVDLQMTSLTAEDTATYFCAASGIWGRGTLVTVSS VL: AQVLTQSTSPLSASVGDRVTITCQSSQRVYSNYLAWYQQKPGQPPKRLIFLASTLESGVPSRFSGSGSGTEFTLTISSLQCDDFATYYCAGTYTGSIWAFGGGTEVVIK | 57.6 | 1.27 | 0.00336 | 58300 | no binding (tested: supernatant 1:100)
Clone 34 (VH6Vκ1), humanised variant of clone #28, human IgG1 (antibody, V domains shown, also called VH6VK1) VH: QVQLQESGPGLVKPSETLSLTCTVSGFSLNNYDMSWVRQAPGKGLEWIGTVSTTYRRYYADSVKGRFTISRDNSKNTLDLQMTSLTAEDTATYFCAASGIWGRGTLVTVSS VL: AQVLTQSTSPLSASVGDRVTITCQSSQRVYSNYLAWYQQKPGQPPKRLIFLASTLESGVPSRFSGSGSGTEFTLTISSLQCDDFATYYCAGTYTGSIWAFGGGTEVVIK | 141 | 3.11 | 0.00525 | 37300 | no binding (tested: supernatant 1:100)
Clone 33 (VH5Vκ5), humanised variant of clone #28, human IgG1 (antibody, V domains shown, also called VH5VK5) VH: QVQLQESGPGLVKPSETLSLTCTVSGFSLNNYDMSWVRQAPGKGLEWIGTVSTTYRRYYASWAKGRFTISRDNSKNTLDLQMTSLTAEDTATYFCAASGIWGRGTLVTVSS VL: DIQMTQSPSTLSASVGDRVTITCQSSQRVSSSYLAWYQQKPGQPPKRLIFLASTLESGVPSRFSGSGSGTEFTLTISSLQPDDFATYYCAGTYTGSIWAFGGGTKVEIK | 60.6 | 1.34 | 0.00354 | 58400 | no binding (tested: supernatant 1:100)
Clone 29 (VH4Vκ5), humanised variant of clone #28, human IgG1 (antibody, V domains shown, also called VH4VK5) VH: QVQLQESGPGLVKPSETLSLTCTVSGFSLNNYDMSWVRQAPGKGLEWIGTVSTTYRRYYASWAKGRFTISKDTSSTTVDLQMTSLTAEDTATYFCAASGIWGRGTLVTVSS VL: DIQMTQSPSTLSASVGDRVTITCQSSQRVSSSYLAWYQQKPGQPPKRLIFLASTLESGVPSRFSGSGSGTEFTLTISSLQPDDFATYYCAGTYTGSIWAFGGGTKVEIK | 114 | 2.52 | 0.00409 | 35900 | no binding (tested: supernatant 1:100)

The remaining lines, values ahead:

Kd [1] [nM] | Relative KD [1] [fold vs VH0VK0] | koff [1] [s⁻¹] | kon [1] [M⁻¹ s⁻¹] | binding result [2] | Binder
222 | 4.9 | 0.00533 | 24000 | no binding (tested: supernatant 1:100) | Clone 35 (VH6Vκ2), humanised variant of clone #28, human IgG1 (antibody, V domains shown, also called VH6VK2) VH: QVQLQESGPGLVKPSETLSLTCTVSGFSLNNYDMSWVRQAPGKGLEWIGTVSTTYRRYYADSVKGRFTISRDNSKNTLDLQMTSLTAEDTATYFCAASGIWGRGTLVTVSS VL: AQVLTQSPSTLSASVGDRVTITCQSSQRVYSNYLAWYQQKPGQPPKRLIFLASTLESGVPSRFSGSGSGTEFTLTISSLQPDDFATYYCAGTYTGSIWAFGGGTKVEIK
75.7 | 1.67 | 0.00351 | 46300 | no binding (tested: supernatant 1:100) | Clone 30 (VH5Vκ1), humanised variant of clone #28, human IgG1 (antibody, V domains shown, also called VH5VK1) VH: QVQLQESGPGLVKPSETLSLTCTVSGFSLNNYDMSWVRQAPGKGLEWIGTVSTTYRRYYASWAKGRFTISRDNSKNTLDLQMTSLTAEDTATYFCAASGIWGRGTLVTVSS VL: AQVLTQSTSPLSASVGDRVTITCQSSQRVYSNYLAWYQQKPGQPPKRLIFLASTLESGVPSRFSGSGSGTEFTLTISSLQCDDFATYYCAGTYTGSIWAFGGGTEVVIK
123 | 2.72 | 0.00406 | 33100 | no binding (tested: supernatant 1:100) | Clone 36 (VH6Vκ4), humanised variant of clone #28, human IgG1 (antibody, V domains shown, also called VH6VK4) VH: QVQLQESGPGLVKPSETLSLTCTVSGFSLNNYDMSWVRQAPGKGLEWIGTVSTTYRRYYADSVKGRFTISRDNSKNTLDLQMTSLTAEDTATYFCAASGIWGRGTLVTVSS VL: DIQMTQSPSTLSASVGDRVTITCQSSQRVYSNYLAWYQQKPGQPPKRLIFLASTLESGVPSRFSGSGSGTEFTLTISSLQPDDFATYYCAGTYTGSIWAFGGGTKVEIK
